Laboratory results: patent publication US20040208880A1 (University of Texas, published 2004)
Numbering of substitutions follows the chain as printed. Names may count otherwise.

B1: GST-Pak1 Cdc42/Rac-interacting (CRIB) domain (other)
chain: ISLPSDFEHTIHVGFDAVTGEFTGMPEQWARLLQTSNITKSEQKKNPQAVLDVLEFYNSKKTSNSQKYMSFTDKS
notes: not shown: glutathione-S-transferase (GST) fusion partner
B2: GST-DLC1 deletion construct lacking the C-terminal amino acids 67-89 (other)
chain: MCDRKAVIKNADMSEEMQQDSVECATQALEKYNIEKDIAAHIKKEFDKKYNPTWHCIVGRNFGSYV
notes: not shown: GST fusion partner at the N end and any linker to it
B3: HA-tagged T423E Pak1 (catalytically active Pak1) (enzyme)
chain: MSNNGLDIQDKPPAPPMRNTSTMIGVGSKDAGTLNHGSKPLPPNPEEKKKKDRFYRSILPGDKTNKKKEKERPEISLPSDFEHTIHVGFDAVTGEFTGMPEQWARLLQTSNITKSEQKKNPQAVLDVLEFYNSKKTSNSQKYMSFTDKSAEDYNSSNALNVKAVSETPAVPPVSEDEDDDDDDATPPPVIAPRPEHTKSVYTRSVIEPLPVTPTRDVATSPISPTENNTTPPDALTRNTEKQKKKPKMSDEEILEKLRSIVSVGDPKKKYTRFEKIGQGASGTVYTAMDVATGQEVAIKQMNLQQQPKKELIINEILVMRENKNPNIVNYLDSYLVGDELWVVMEYLAGGSLTDVVTETCMDEGQIAAVCRECLQALEFLHSNQVIHRDIKSDNILLGMDGSVKLTDFGFCAQITPEQSKRSEMVGTPYWMAPEVVTRKAYGPKVDIWSLGIMAIEMIEGEPPYLNENPLRALYLIATNGTPELQNPEKLSAIFRDFLNRCLDMDVEKRGSAKELLQHQFLKIAKPLSSLTPLIAAAKEATKNNH
notes: Expressed in MCF-7 cells under a Tet-on promoter; also called HA-Pak1-T423E; not shown: HA tag
B4: p21-activated protein kinase 1 (Pak1), full-length, amino acids 1-545 (enzyme)
chain: B3 chain with E423T
notes: Used both as in vitro translated 35S-labeled full-length protein and as the endogenous protein of human cell lines
B5: GST-Pak1 auto inhibitory domain (other)
chain: RFYRSILPGDKTNKKKEKERPEISLPSDFEHTIHVGFDAVTGEFTGMPEQWARLLQTSNITKSEQKKNPQAVLDVLEFYN
notes: as for B1
B6: GST-Pak1 N-terminal domain (amino acids 1-132) (other)
chain: MSNNGLDIQDKPPAPPMRNTSTMIGVGSKDAGTLNHGSKPLPPNPEEKKKKDRFYRSILPGDKTNKKKEKERPEISLPSDFEHTIHVGFDAVTGEFTGMPEQWARLLQTSNITKSEQKKNPQAVLDVLEFYN
notes: as for B1

What was measured:
[1] = molecular target: T1, dynein light chain-1/protein inhibitor of nitric oxide synthase (DLC1/PIN), amino acids 1-89 (human, UniProt P63167 1-89); assay: GST pull-down with in vitro translated DLC1/PIN
T1 construct: Used both as in vitro translated 35S-labeled protein (aa 1-89) and as the endogenous protein of human cell lines (MCF-7, Ishikawa)

[2] = molecular target: T2, estrogen receptor alpha (ER), full-length (UniProt P03372 1-595); assay: GST pull-down with in vitro translated 35S-ER
T2 construct: Used as in vitro translated 35S-labeled full-length ER and as the endogenous ER of human cell lines (Ishikawa, MCF-7 derivatives); also called ERα; ERá
T2 sequence (looked up): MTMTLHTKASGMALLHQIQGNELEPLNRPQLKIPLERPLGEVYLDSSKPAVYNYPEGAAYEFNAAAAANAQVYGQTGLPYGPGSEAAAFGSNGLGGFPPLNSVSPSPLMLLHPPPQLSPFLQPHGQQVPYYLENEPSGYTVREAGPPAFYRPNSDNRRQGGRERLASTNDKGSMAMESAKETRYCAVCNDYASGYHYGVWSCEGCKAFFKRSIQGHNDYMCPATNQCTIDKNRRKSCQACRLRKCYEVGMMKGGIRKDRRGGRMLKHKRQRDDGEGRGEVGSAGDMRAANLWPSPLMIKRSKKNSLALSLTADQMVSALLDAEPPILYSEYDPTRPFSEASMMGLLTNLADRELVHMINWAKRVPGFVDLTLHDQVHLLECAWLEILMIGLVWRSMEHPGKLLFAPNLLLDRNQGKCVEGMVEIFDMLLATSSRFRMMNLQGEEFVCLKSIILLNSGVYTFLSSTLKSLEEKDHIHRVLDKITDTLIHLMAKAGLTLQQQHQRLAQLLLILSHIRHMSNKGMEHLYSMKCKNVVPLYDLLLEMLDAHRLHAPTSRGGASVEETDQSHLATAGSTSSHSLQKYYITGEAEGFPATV

[3] = molecular target: T1, dynein light chain-1/protein inhibitor …; assay: immunoprecipitation with HA antibody from Tet on-HA-Pak1-T423E MCF-7 cells, immunoblot
[4] = molecular target: T2, estrogen receptor alpha (ER), …; assay: immunoprecipitation with anti-Pak1 Ab, immunoblot with ERα Ab

Row | Binder | binding result [1] | other results
1 | B1 | no binding | –
2 | B2 | – | binding result [2]: no binding
3 | B3 | – | binding result [3]: binds
4 | B4 | – | binding result [4]: binds
5 | B5 | no binding | –
6 | B6 | no binding | –
